assay: yeast display, Sf9 membrane polyspecificity reagent, FACS + sequencing; frameworks hold sequencing errors
In short: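 A nanobody's polyreactivity label depends on the gate it was sorted from. Yeast display cells were stained with 10% biotinylated, detergent-solubilized Sf9 membrane reagent for 1 hour at 4 °C, enriched on streptavidin microbeads and sorted by FACS. The low and high (top ~1%) gates were set on anti-HA fluorescence for expression and streptavidin fluorescence for reagent binding.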

Sequence | polyreactivity (PSR sort gate)
QVQLVESGGGLVQAGGSLRLSCAASGFIFDDNAMGWYRQAPGKERELVAAITSGGGSTYYADSVKGRFTISRDNAKNTVYLQMNSLKPEDTAVYYCARDQTWSYQPWYYLSYPQYEYWGQGTQVTVSS | low polyreactivity
QFQLVESGGGLVQAGGSLRLSCAASGRTFIGYAMGWYRQAPGKERELVAAITSDGGTNYADSVKGRFTISRDNAKNTVNLQMNSQKPEDTAVYYCGARRRVSYHLYGYWGQGTQVTLSS | high polyreactivity
QVQLVESGGGLVQAGGSLRLSCAASGLIYVTNAMGCYRQAPGKERELVAAITSVGSTNYADSVKGRFTISRDNAKNTVYLQMNSLKPEDTAVYYCAAGVIADQSIGPTWSGSEGDYWGQGTQVTVSS | low polyreactivity
QVQLVESGGGLVQAGGSLRLSCAASGRTFRVNAMGWYRQAPGKERELVAAITSSGGNTYADSVKGRFTISRDNAKNTVYLQMNSLKPEDTAVYYCAAVSSTRGDYWGQGTQVTVSS | high polyreactivity
QVHLVESGGGLVQAGGSLRLSCAASGRIFGKYAMGWYRQAPGKERELVAAISSSGRTNSADSVKGRFTISRDNAKNTVYLQMNSLKPADTAVYYCAVRVLIHTNTRRLDYWGQGTQVTVSS | high polyreactivity
QVQLVESGGGLVQAGGSLRLSCAASGLIFAVYTMGWYRQAPGKERELVAAITRRSTRTYYADSVKGRFTISRDNAKNTVYLQMNSLKPEDTAVYYCAADRGSSGAAFEYWGQGTQVTVSS | low polyreactivity
QVQLVESGGGLVQAGGSLRLSCAASGFILAQNAKGWSRQAPGKEWELVAAISRRGGRTSYADSVKGRFTISRDNAKNTVYLQMNSLKPEDTAVYYCAALPPRASSDAGGWYVAEDYWGQGTQVTVSS | high polyreactivity
QVQLVESGGGLVQAGGSLRLSCAASGRTFNGDAMGWYRQAPGKERELVAAISSSGGSTYYADSVKGRFTISRDNAKNTVYLQMNSLKPEDTAVYYCAARRANGFNYWGHGTQVTVSS | high polyreactivity
QVNLVESGGGLVQAGGSLRLSCAASGRIFRKYAMGWYRQAPGKVREFVAAITVSGDRTYYADSVKGRFTISRDNAKNNVYLQMNSLKPEDTAVYYCATKGYYYPYVTYDYWGQGTQVTVSS | low polyreactivity
QVQLVESGGGLVQAGGSLRLSCAASGRTFPGTAMGWYRQAPGKVRELVAAISSSGGSTHYADSVKGRFTISRDTAKNTVYYQMNSLKPEDTAVYYCNTVYAVWYKLDYWGQGTQVTVSS | high polyreactivity
QVQLVESGGGLVQAGGSLRLSCAASGFTFGSNAMGWYRQAPGKERELVATISRRGGRTYYADSVKGRFTISRDNAKNTVYLQMNSLKPEDTAVYYCAADRSRPGYDYWGQGTQVTVSS | high polyreactivity
QVQLEESGGGLVQAGASLRLSCAASGRTFPRYAMGWSRQAPGKERELVAAITSSGGSTNYADSVKGRFTISRENATNSVYLQMYSLKPEDTAVYYCNARFPTQYILWSSSPYGYWGQGTQVTVSS | low polyreactivity
QVQLVESGGGLVQAGGSLRLSCAASGGTFLYYMGWYRQAPGKERELVAAITFSGGSTYYADSVKGRFTISRDNAKNTVYLQMNSLKPEDTAVYYCAAGWYDWPKYLLSVYTYYLYDSWGQGTQVTVSS | low polyreactivity
QVQLVESGGGLLQAGGSLRLSCAASGSIFTLYDMGRYRQAPGKERELVAAITSGGSTDYADSVKGRFTISRDYAKNTVFLQMNSLKPEDTAVYYCNAEAYPYWYRGASRDYDYWGQGTQVTVSS | low polyreactivity
QVQLVESGGVLVQAGGSLRLSCAASGRTFGHYAMGWYRQAPGKERELVAAITRDDGTNYADSVKGRFTISRDNAKNTVYLQMNSLKPEDTAVYYCDRDVLEKYRQSWGYVPLQGYDYWGQGTQVTVSS | low polyreactivity
QVQLVESGGGLVQAGGSLRLSCAASGRIFRRYAMGWNRQAPGKEMELVAAISRSGGSTYYADSVKGRFTISRDNAKNTVYLQMNSLKPEDTAVYYCNRRYITYNYDYWGQGTQVTVSS | high polyreactivity
QVHLVESGGGLVQAGGSLRLSCAASGRIFGEYAMGWYRQAPGKERELVAAISYRGGRTYYADSVKGRFTISRDNAKNTVYLQMNSLKPEDTAVYYCAKTNRDEYDYWGQGTQVTVSS | high polyreactivity
QVQLVESGGGLVQAGGSLRLSCAASGSIFGGNAMGWYRQAPGKERELVATITDRGSSTYYADSVKGRFTISRDNAKNTVYLQMNSLKPEDTAVYYCATAFPDVPEPDYWGQGAQVTVSS | low polyreactivity
QVQLVESGGGLVQAGGSLRLSCAASGRTFSAYAMGWYRQAPGKERELVARITSVDSTNYADSVKGRFTISRDNAKNTVYLQMNSLKPEDTAVYYCNATFGYPCVDYDDYWGQGTQGTVSS | low polyreactivity
QVQLVESGGGLVQAGGSLRLSCAASGINFSYYAMGWYRQAPGKERELVAAIRENGGSTYYADSVKGRFTISRDNAKNTVYLQMNSLKPEDTAVYYCAVDTTYYAGYEYDYWGQGTQVTVSS | low polyreactivity
QVQLVESGGGLVQAGGSLRLSCAAYGNTFSQYAKGWYRQAPGKERELVATISKSSGSTSYTDSVKGRFTISRDNAKNTVYLQLNSLKPEDSAVYYCNADSSDVYHHLGVLFFSTWYDYWGQGTLVTVSS | low polyreactivity
QVQLVESGAGLVQAGGSLRISCAASGITFYRNAMGWYRQAPGKERELVAAITWNGGRTYYADSVKGRFTISRDNAKNTVYLQMNSLNPEDTAVYYCAKRYGSTQSRYDFWGPGTQVTVSS | high polyreactivity

Sequence | polyreactivity (PSR sort gate)
QVQLVESGGGLVQAGGSLRLSCAASGSIFSGYVMGWYRQAPGKERELVAAIDNSSGSTYYADSVKGRFTISRDNAKNSVYLQMNSLKPEDTAVYYCAAAYYWKAYSEYDYWGQGTQVTVSS | low polyreactivity
QVQLVESGGGLVQAGGSLRLSCAASGFTFKYYTMGWYRQAPGKERELVAAISSAASTNYADSVKGRFTISRDNAKNTVYLQMNSLKPEDTAVYYCNADITGWARIRYQWIRQYDYWGQGTQVTVSS | high polyreactivity
QVQLVESGGGLVQAGGSLRLSCAASGSTFPGYAMGWYRQAPGKERELVASITSSGDNTYYADSVKGRFTISRDNAKNSVYLQMNSLKPEDTAVYYCAAPTKYRSRRYYWGQGTQVTVSS | high polyreactivity
QVQLVESGGGLVQAGGSLRLSCAASGRIFANYAMGWYRQAPGKERELVAGITTGGSTYYADSVKGRFTISRDNAKNTVYLQMNSLKPVDTAVYYCAVRWRNRLYYYWGQGTQVTVSS | high polyreactivity
QVQLVESGGGLVQAGGSLRLSCAASGRIFYSNAIGWYRQAPGKERELVAAIRDSAGSTRYADSVKGRFTISRDNAKNTVYLQMNSLKPVDTAVYYCNKDYVSIYFEYLDDYWGQGTQVTVSS | low polyreactivity
QVQLVESGGGLVQAGGSLRLSCAASGRNLIAYAMGWYRQAPGKEREFVAAIRADDGRTYYADSVKGRFTISRDNAKITVYLQMTSLKPEDTAVYYCAAEWYWLHSWFDYWGQGTQVTVSS | high polyreactivity
QVQLVESGGGLVQAGGSLRVSCAASGYFFHYHAMGWYRHAPGKEREFVAAISQGGGSTYYADSVKGRFTISRDNAKKTVSLQMISLKPEDTAVYYCAADYRSGYREMDYWGQGTQVTVSS | low polyreactivity
QFHLLESGGRLDQAGGSLRLSCAASGIIFRGNAMGWYIQAPGKERELVAAISSGGSTYYADTVKGSFTISRDNAKNTVYLKMNCLKPEDTAVYYCNARWYFWGTLYGSWGQGTQVTVSS | high polyreactivity
QVQLVESGGGLVQAGGSLRLSCSASGRIFRFYGMGWYRQAPGKDRELVAAISSRGGSTYYADSVKGRFTISRDNAKNTVYLQMNSLKPEDSGVYYCAASGAFWYPYDYWGQGTQVTVSS | high polyreactivity
QLQLVESGGGLVQAGGSLRLSCAASGLTIWRYAKGCYRQAPGKEREFVATISQNGGRTYYADSVKGRFTISRDNAKNSVYLQMNSLKPEDTAVYYCAADDWRWGYDYWVQGTQVTVSS | high polyreactivity
QVQLVESGGGLVQAGGSLRLSCAASGSTFQSNAMGWYRQAPGKERELVAAINSGTSTYYADSVKGRFTISRDNAKNTVYLQMNSLKPEDTAVYYCAADGIWGEYYYSELGDYDYWGQGTQVTVSS | low polyreactivity
QVQLVESGGGLVQAGGSLRLSCAASGRTIDPNAMGWYRQAPGKERELVAAISRTGVRTYYADSVMGRFTISRDNAKNTVYLQMNSLKPEDTAVYYCNRYGARSNDYWGQGTQVPVSS | low polyreactivity
QVQLVESGGGLVQAGGSLRLSCAASGSTFKRYAMGWYRQAPGKERELVAAINRSGTSTYADSVKGRFTISRDNAKNTVYLQMNSLKPEDSAVYYCARYYAYLRVKYDYWGQGTQVTVSS | high polyreactivity
QVQLVESGGGLVQAGGSLRLSCAASGSIFWLYAMGWYRQAPGKERELVARINWSGGNTYYADSVKGRFTISRDNAKNTDYLQMNSLKPEDTAVYYCNARSQYRMNYWGQGTQVTGSS | low polyreactivity
QVQLVESGGGLVQAGGSLRLSCAASGFIFQSYAMGWYRQAPGKERELVAAISASGGRTYYADSVKGRFTISRDNAKNTVYLQMNSLKPEDNAVYYCNARPAGRGYNYWGQGTQVTVSS | high polyreactivity
QVQLVESGGGLVQAGGSLRLSCAASGFTLAGYDMGWYRQAPGKERELVATISTYADSVKGRFTISRDNAKNTVYLQMNSLKPEDTAVYDCAKKYVWTHNYWGQGTQVTVSS | low polyreactivity
QVQLVESGGGLVQAGGSLRLSCAASGSIFFSYAMGWYRQAPGKERELVATITTSGGRTRYADSVKGRFTISRDNAKNTVYLQMNSLKPEDTAVYYCAVRGHFFTYGYWGQGTQVTVSS | high polyreactivity
QVQLVESGGGLVQAGGSLRLSCAASGSIFKRYAMGWYRQAPGKERELVAAISRRGASTYYADSVKGRFTISRDNAKNTVYLQMNSLKPEDTAVYYCNAYLPRQGPSGRPRSQYDSWGQGTQVTVSS | high polyreactivity
QVQLVESGGGLVQAGGSLRLSCAASGSTFTYYAMGWYRQAPGKERELVADISWDGGSTYYADSVKGRFTFSRDNAKNTVYLQMNSLKPEDTAVYYCATDLVYKYDYWGQGTQVTVSS | low polyreactivity
QVQLVESGGGLVQAGGSLRLSCAASGRTVVNAMGWYRQAPGKERELVAAISSNGGRTYYADSVKGRFTISRDNAKNTVYLQINSLKPEDTAVYYCAAGYIWFRKIQFDYWGQGTQVTVSS | high polyreactivity
QVQLVESGGGLVQAGGSLRLSCAASGFIFKKYVMGWYRQAPGKERELVAGISRSGGSTYYADSVKGRFTISRDNAKNTVYLQMNSLKPEDTAVYYCAAYIYQSPTRGGGYWGQGTQVTVSS | high polyreactivity
